These results are taken from patent publication US20220033493A1.

The target of assay [1] is CaVβ2b with N-terminal deca-histidine tag (purified from E. coli). Description: isothermal titration calorimetry, purified proteins, 25 °C. (In general: ITC needs no label: the signal is the heat of the interaction.)
The target is the same in assay [2]. Briefly: isothermal titration calorimetry, purified proteins, 25 °C, nb.F3 injected into CaVβ2b.
The target is the same in assay [3]. Briefly: isothermal titration calorimetry, nb.F3 injected into CaVβ2b, T=298K.

B1: nb.F3 with N-terminal deca-histidine tag (purified from E. coli) (VHH)
VHH: QVQLQESGGGLVQAGGSLRLSCVASGRTFSSYAMGWFRQAPGKEREFVAAIDWSGGTASHADSVKGRFTISRDNAKNTVYLQMNSLKPEDTAVYYCAASSYWSRSVDEYDYWGQGTQVTVSS
B1 displayed a stoichiometry in assay [1] of 1. The Kd – broadly, the equilibrium constant for the complex coming apart – in assay [2] came to 13.2 nM. In assay [3], this molecule showed a Ka of 1.07e+08 M⁻¹, a N (stoichiometry) of 0.93, a ΔH of -14.9 kcal/mol and a ΔS (cal mol-1 K-1) of -13.8.
